Experimental data taken from article PMC4434712 (Proceedings of the National Academy of Sciences of the …, 2015).
Where two headings read alike, the source gives them in different places.

Assays:
Assay in all cases: crystal structure
[1] = biological target: T1, VZV glycoprotein gH (ectodomain, as in the gHgL crystal structures) (varicella-zoster virus, UniProt P09260)
VZV glycoprotein gL [2] = biological target: T2, VZV glycoprotein gL (varicella-zoster virus, UniProt P09308)
[3] = biological target: T1, VZV glycoprotein gH (ectodomain, as in …); remark: listed apart in the source
VZV glycoprotein gL [4] = biological target: T2, VZV glycoprotein gL; remark: listed apart in the source

T1 sequence (P09260 18-795): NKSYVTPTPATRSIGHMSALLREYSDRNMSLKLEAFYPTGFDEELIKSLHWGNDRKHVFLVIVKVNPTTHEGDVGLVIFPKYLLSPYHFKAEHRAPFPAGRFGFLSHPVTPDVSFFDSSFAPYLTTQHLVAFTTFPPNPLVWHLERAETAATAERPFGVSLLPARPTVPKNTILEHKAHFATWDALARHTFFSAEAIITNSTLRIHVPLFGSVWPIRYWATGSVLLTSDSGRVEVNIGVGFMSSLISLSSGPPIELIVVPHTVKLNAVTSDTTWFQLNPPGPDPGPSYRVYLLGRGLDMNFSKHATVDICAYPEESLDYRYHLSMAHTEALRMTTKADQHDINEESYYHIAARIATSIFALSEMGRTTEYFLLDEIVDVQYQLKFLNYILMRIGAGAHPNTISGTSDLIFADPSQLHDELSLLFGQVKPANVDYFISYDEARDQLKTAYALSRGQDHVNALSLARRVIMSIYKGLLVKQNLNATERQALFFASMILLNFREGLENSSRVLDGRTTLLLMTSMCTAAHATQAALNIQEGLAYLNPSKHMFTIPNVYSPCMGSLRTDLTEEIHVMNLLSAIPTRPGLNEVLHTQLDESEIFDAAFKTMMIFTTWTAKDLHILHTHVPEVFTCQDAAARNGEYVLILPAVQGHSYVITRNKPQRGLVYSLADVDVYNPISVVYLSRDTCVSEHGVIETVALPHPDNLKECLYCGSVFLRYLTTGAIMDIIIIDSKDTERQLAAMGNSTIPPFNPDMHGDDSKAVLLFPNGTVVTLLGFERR
T2 sequence (P09308 22-159): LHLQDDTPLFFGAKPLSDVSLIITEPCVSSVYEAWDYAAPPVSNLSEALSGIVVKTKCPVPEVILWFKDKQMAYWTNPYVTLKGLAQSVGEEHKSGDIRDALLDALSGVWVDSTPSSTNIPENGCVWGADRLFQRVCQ

B1: Fab-94, Fab fragment of the human monoclonal antibody IgG-94 (Fab, V domains shown)
VH: EVQLVESGGGVVQPGRSLRLSCGASGFTFNTYAMHWVRQAPGKGVEWVAVVSDGGGNRYYAASVKGRFTISRDNSKNTLFLQLNTLRPEDTAVYYCARSRGNHYYYGMDVWGRGTTVTVSS
VL: DIQMTQSPSSVSASVGDRVTITCRASQGISSWLAWYQQKPGKAPKLLIYAASSLQSGVPSRFSGSGSGTDFTLTISSLQPEDFATYYCQQANNFPLTFGGGTKVEIK
B1: binds [1]; binds (VZV glycoprotein gL [2]).

B2: Fab-RC, Fab fragment of the human monoclonal antibody IgG-RC (Fab, V domains shown)
VH: QVQLVQSGAEMKKPGASVKVSCKASGYTFIGYHLHWVRQAPGQGLEWMGWINPNSGETNYAQKFQDWVTMTRDTSINTAYMELRLRSDDTAVYYCARGGMTMVRGVMMDWGQGTLVTVSS
VL: DIQMTQSPSFLSASVGDRVTITCRASQGLDNFLAWYQQKPGKAPKLLIYAASTLQRGVPSRFGGSGSGTEFTLTISSLQPEDFATYYCQQLNSYSLTFGPGTKVEIK
B2: binds [3]; binds (VZV glycoprotein gL [4]).
